Results on four molecules are retold here after US20240425603A1 (Janssen / Centocor, published 2024).

“And” between values parts separate entries of the source, which are not always exact repeats. Equal values may be shown once.

The target in one assay is T1, ISLR (BC022478) (human, UniProt O14498 19-428).
T1 construct: whole, on cells; also called Immunoglobulin superfamily containing leucine-rich repeat protein
T1 sequence (looked up): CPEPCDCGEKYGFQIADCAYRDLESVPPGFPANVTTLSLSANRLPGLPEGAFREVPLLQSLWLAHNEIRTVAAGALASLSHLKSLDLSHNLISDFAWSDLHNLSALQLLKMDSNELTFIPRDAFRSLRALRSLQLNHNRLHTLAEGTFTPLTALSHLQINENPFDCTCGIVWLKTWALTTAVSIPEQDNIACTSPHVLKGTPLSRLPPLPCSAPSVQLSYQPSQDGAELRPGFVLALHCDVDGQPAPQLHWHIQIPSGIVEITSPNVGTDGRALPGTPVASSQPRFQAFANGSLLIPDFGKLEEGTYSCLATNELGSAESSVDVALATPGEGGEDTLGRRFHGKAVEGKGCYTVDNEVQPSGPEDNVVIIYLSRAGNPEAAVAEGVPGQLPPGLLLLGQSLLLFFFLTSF
Description: Retrogenix cell microarray, fixed HEK293 cells, 2 ug/mL antibody. The protocol:
This human cell microarray methodology has been previously described in the literature (Freeth, J. et al, SLAS Discovery, 25 (2), 223-230, 2020). Primary screening was performed on slides arrayed with fixed HEK293 cells with each spot of HEK293 cells expressing either a unique protein from the cell surface-ome, a cell surface tethered human secreted protein, or a heterodimeric human cell surface receptor. In total, 5,528 unique gene products were represented in this primary screen (4,103 human plasma membrane proteins (+some untethered secreted proteins)+1,425 cell surface tethered human secreted proteins). Briefly, slides containing fixed transfected HEK293 cells were overlaid with a solution of test antibody (2 μg/mL), incubated, and washed. Binding was assessed using AlexaFluor647-conjugated anti-human IgG Fc detection antibody and fluorescence quantitation on ImageQuant. […] Located in the ER, off-target binding to CRELD2 was of less concern. Nectin-1, FGFR2, and ISLR, on the other hand, display broad tissue expression profiles. Cross-reactivity to these proteins is undesirable because binding to these targets might have a significant impact on pharmacokinetic and biodistribution profiles of the molecules. This off-target binding was subsequently confirmed by flow cytometry on live HEK293 cells transiently expressing these ‘off-target’ proteins identified in the primary screen.

Assay [1] concerns the target T2, human VEGFR2, over-expressed on HEK293 cells (human, UniProt P35968 20-1356).
T2 construct: whole, on cells; also called huVEGFR2; hVEGFR2
Description: flow cytometry, single concentration (Table 21). Background: In flow cytometry, cells or beads pass a laser one at a time.

The target in assay [2] is T3, human VEGFR1, full length, over-expressed on cells (human, UniProt P17948 27-1338).
T3 construct: on CHO-K1 or HEK cells; also called hVEGFR1; CHOK1/ human VEGFR1
Description: cell binding assay (column head prints IC50).

For assay [3], the target named is cynomolgus monkey VEGFR1 (soluble antigen of the KinExA and SPR affinity assays) (cynomolgus monkey). The experiment in a line: SPR. On the technique in general: In SPR one partner is held on a chip, and binding of the other changes the refractive index at the surface.
For assay [4], the target named is T4, rat VEGFR1 (soluble antigen of the KinExA and SPR affinity assays) (rat, UniProt P53767 23-758, limits assumed).
T4 sequence (looked up): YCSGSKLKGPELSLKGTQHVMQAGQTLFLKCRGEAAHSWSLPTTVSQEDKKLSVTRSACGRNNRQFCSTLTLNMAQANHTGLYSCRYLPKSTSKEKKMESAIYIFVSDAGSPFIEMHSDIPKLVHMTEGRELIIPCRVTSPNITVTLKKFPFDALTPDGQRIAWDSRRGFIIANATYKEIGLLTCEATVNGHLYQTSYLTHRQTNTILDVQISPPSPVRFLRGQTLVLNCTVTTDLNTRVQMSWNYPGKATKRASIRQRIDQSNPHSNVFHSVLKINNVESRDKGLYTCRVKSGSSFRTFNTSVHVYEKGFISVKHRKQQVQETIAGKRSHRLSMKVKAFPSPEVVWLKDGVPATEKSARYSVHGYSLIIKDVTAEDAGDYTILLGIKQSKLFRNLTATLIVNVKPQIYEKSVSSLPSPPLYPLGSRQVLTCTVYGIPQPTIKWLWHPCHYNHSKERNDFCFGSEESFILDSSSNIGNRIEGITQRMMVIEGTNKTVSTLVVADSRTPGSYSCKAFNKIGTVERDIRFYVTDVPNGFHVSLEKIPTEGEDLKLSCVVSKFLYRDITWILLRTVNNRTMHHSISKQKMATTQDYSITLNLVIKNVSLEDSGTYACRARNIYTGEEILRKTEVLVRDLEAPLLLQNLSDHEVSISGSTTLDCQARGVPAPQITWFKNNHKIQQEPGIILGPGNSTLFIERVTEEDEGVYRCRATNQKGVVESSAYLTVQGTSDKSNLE
The experiment in a line: KinExA, solution. The protocol:
(§1) Kinetic exclusion assay (KEA; KinExA) was used to analyze the binding of anti-VEGFR1 antibodies to human, mouse and cynomolgus monkeys VEGFR1. KEA is a fluorescence-based solution method, and it is described in detail in the literature (Darling and Brault, 2004). To measure the affinity of an interaction, a series of solutions with a fixed concentration of one interactant (A) and varying concentrations of another interactant (B) are prepared and allowed to reach equilibrium. After equilibration, the concentration of free A is determined by flowing the equilibrated mixture through a column packed with beads modified with reactant B. Free A binds to the beads and is then detected using a fluorescently labeled polyclonal antibody.
(§2) Briefly, fixed concentrations (300 pM, 60 pM, 12 pM, 2.4 or 0.5 pM) of Ab were used to prepare a serial dilution of the antigen (2 nM to 0.52 pM, or 800 pM to 5.37 fM). The complex titrations were incubated at RT to reach binding equilibrium for at least 2 days. After incubation, the samples were run on the KinExA3200 or KinExA4000 instrument to assess free antibody in the reaction. During these studies some of the data were rejected because the experiments failed or failed the acceptance criteria. For mouse VEGFR1 the 60 and 300 pM concentrations were rejected due to high titrant related NSB. The dissociation equilibrium constant, (KD), was determined using the n-curve analysis feature of the KinExA Pro software. This program uses nonlinear least-square regression analysis of the globally fitted data to a 1:1 binding model. (CI=confidence interval).

Assay [5] deals with human VEGFR1 (soluble antigen of the KinExA and SPR affinity assays) (human, UniProt P17948 27-758, limits assumed). The experiment in a line: KinExA, solution. The protocol: as §1, §2
(In general: Kinetic exclusion samples the free partner from a solution-phase mixture.)

T2 sequence (P35968 20-1356): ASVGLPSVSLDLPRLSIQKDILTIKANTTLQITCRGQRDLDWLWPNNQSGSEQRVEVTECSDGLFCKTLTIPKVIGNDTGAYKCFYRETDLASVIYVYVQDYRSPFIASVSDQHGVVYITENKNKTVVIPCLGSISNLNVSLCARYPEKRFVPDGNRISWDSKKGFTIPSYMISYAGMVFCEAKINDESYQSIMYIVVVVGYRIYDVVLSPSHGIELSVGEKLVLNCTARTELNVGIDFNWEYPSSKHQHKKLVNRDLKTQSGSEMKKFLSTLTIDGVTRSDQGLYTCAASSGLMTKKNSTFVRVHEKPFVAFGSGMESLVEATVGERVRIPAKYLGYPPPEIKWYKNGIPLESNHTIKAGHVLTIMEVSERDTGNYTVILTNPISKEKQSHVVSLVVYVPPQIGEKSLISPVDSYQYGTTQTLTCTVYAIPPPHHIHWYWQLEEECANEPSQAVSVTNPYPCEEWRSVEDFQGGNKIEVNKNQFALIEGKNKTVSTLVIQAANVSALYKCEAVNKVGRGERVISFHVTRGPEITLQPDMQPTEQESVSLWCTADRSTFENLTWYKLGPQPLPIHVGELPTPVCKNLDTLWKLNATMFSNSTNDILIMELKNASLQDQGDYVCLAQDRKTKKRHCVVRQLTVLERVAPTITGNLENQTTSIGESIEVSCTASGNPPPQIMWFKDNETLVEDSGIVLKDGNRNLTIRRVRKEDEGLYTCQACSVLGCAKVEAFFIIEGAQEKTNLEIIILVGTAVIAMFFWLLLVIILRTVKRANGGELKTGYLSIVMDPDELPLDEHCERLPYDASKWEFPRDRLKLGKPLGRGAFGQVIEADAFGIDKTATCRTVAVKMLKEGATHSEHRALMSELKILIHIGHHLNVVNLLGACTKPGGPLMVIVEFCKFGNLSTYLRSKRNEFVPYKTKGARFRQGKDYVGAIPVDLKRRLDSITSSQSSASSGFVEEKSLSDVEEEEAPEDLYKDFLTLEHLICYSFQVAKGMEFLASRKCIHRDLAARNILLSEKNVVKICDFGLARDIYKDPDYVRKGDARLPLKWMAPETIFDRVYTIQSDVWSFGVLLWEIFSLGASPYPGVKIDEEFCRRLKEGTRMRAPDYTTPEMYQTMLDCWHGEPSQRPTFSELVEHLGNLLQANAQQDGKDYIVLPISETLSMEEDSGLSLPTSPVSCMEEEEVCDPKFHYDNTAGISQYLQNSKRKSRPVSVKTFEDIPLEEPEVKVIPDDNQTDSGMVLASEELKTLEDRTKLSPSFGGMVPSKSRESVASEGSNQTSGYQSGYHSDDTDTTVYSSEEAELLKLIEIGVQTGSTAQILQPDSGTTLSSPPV
Sequence of human VEGFR1 (soluble antigen of the KinExA and SPR affinity assays) (P17948 27-758 limits assumed): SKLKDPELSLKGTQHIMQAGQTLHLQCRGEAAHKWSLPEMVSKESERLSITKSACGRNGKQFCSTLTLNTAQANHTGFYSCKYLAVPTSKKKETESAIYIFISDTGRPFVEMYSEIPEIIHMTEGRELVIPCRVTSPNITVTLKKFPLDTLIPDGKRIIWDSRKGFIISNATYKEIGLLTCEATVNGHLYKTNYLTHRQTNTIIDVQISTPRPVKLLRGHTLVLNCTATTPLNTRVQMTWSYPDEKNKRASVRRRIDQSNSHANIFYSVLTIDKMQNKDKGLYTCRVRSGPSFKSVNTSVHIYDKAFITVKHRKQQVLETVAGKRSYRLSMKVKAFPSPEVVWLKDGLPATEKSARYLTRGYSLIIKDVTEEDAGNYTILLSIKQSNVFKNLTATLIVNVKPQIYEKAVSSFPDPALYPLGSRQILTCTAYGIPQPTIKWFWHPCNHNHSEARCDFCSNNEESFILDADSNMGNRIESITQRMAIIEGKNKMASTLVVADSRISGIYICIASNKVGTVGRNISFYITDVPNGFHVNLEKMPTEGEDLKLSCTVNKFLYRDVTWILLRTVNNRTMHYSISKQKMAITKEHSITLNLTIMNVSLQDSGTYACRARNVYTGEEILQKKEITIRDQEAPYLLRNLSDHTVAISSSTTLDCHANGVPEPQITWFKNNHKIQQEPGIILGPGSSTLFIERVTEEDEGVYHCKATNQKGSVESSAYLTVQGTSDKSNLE
T3 sequence (P17948 27-1338 limits assumed): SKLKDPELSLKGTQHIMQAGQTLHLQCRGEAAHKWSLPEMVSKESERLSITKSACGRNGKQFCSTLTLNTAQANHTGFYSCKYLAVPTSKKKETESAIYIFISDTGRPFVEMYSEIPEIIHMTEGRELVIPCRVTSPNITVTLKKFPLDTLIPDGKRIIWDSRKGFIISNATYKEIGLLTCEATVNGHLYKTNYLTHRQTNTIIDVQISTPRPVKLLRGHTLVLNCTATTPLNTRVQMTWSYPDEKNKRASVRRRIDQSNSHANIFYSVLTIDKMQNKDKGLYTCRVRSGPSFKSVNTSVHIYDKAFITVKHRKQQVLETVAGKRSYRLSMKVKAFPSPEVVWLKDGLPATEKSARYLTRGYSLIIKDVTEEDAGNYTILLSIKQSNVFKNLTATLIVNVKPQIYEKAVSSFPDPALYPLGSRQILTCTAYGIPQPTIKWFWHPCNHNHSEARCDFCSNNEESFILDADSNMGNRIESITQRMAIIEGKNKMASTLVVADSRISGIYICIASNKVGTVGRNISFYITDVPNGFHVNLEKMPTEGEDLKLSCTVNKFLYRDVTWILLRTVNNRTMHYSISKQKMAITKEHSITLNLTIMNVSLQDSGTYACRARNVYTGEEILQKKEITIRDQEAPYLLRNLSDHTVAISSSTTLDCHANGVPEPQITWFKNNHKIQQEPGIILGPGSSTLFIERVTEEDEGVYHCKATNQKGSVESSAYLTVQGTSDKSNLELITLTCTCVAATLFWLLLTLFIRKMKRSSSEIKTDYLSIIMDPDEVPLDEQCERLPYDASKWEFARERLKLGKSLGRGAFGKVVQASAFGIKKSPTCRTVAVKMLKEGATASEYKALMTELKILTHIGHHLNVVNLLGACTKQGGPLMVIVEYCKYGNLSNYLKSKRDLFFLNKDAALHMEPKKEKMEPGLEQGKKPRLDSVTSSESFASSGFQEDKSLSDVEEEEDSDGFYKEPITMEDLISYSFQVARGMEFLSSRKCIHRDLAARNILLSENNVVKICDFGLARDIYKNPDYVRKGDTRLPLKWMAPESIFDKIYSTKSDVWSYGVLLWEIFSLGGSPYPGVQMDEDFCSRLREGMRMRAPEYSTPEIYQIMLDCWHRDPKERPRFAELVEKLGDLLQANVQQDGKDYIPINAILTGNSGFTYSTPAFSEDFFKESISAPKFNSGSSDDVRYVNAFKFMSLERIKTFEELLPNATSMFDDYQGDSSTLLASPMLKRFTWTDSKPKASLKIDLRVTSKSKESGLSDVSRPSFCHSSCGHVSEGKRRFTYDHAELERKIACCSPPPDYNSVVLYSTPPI

B1: VGFB78 (antibody, human IgG1, lambda, L234A L235A, V domains shown)
VH: EVQLLESGGGLVQPGGSLRLSCAASSFTFYNYDMTWVRQAPGKGLEWVAGIGTSGTDMYYADSVKGRFTISRDNSKNTLYLQMNSLRAEDTAIYYCAKDYYYYGMDVWGLGTTVTVSS
VL: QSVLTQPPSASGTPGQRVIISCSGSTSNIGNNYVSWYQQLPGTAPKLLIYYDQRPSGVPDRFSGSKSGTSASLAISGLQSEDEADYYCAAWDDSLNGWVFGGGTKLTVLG
notes: human IgG1 (L234A/L235A/D265S)
Consider B1, for which the binding result with ISLR (BC022478) is reported as “binds”.

B2: VGFB71 (antibody, human IgG1, lambda, L234A L235A, V domains shown)
VH: EVQLLESGGGLVQPGGSLRLSCEASGFIFRDYNMNWVRQAPGKGLEWVSIITNDGSSTAYSDSVKGRFTISRDNSKNSLYLQMNSLRAEDTAIYYCVKVYYGMDDWGQGTTVTVSS
VL: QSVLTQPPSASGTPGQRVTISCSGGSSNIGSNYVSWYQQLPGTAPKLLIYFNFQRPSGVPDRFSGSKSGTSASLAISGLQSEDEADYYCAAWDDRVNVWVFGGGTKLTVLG
notes: as for B1
With B2, the binding result in assay [1] is listed as “no binding (tested: 10 nM)”.

B3: VGFB54 (antibody, human IgG1, lambda, L234A L235A, V domains shown)
VH: EVQLLESGGGSVQPGGSLRLSCTASGFNFEDYGMNWVRQAPGKGLDWVSSINRNGDISTYHVDSVKGRFTISRDNSKNTLYLQMNSLRAEDTAIYYCTKNHDYHGMDVWGQGTTVTVSS
VL: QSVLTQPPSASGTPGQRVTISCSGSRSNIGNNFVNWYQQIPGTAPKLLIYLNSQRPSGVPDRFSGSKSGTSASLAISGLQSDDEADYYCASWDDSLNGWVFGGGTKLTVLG
notes: human IgG1 (L234A/L235A/D265S), lambda, 2H:2L; from OmniChicken
On to B3, for which the IC50 in assay [2] came to 198 pM. For the same molecule, the Kd in assay [3] was 16 pM and 18 pM.

B4: VGFB82 (antibody, human IgG1, lambda, L234A L235A, V domains shown)
VH: EVQLLESGGGLVQPGGSLRLSCEASGFDFSTYAMNWVRQAPGKGLEWVATINSEGTITSHAPAVKGRFTISRDNSKNTAYVQMNSLRAEDSAVYYCSSTTGTTHGMDVWGRGTTVTVSS
VL: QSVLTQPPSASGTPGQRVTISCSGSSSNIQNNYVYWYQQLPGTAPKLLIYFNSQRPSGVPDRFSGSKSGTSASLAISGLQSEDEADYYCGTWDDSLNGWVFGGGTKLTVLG
notes: as for B1
Regarding B4, the Kd is 38 pM and 23 pM in assay [3]; 224 pM in assay [4]; 0.46 pM in assay [5].

What is called IC50 is the concentration that inhibits the measured activity by half. In general, Kd refers to a measure of binding affinity in units of concentration.
